Experimental data from the DeepSol protein solubility set.

Test: soluble on expression in E. coli; label from the status in PepcDB or PDB records

| Sequence | soluble on expression in E. coli |
| --- | --- |
| MGSDKIHHHHHHMNIAIDARGINLYRGTGIGTYTENLVRELLNIDEENSYTLYWYGNNYKDFIKSNTKINIVSKGCHSFFEKCYFPENIIKNSIEIYHVPQNGIGLDQNVSCIKVSTVHDLIPYIMPETVGKGYLLKFLKNMPFIIENSDAILTVSEYSKKDILKYFPINEDKIYVTPLAANYNYKPLSREHCKKFIEKNYSISDPFVLYLGGFSKRKNVRNLILAFADASKKLSKKHNLVIIGLCRDELESLKDLCRHLNISNEVIFTGYIGERFLPVFYNACELFVYPSLYEGFGLPVLEAMSCKTPVVTSNISSIPEIAGDSAVLINPLDTSELRDAILNILEDSKLKQKLSIEGFNRSRKFSWKNTSKKTLEAYSNIYNTFA | not soluble |
| ASMTGGQQMGRILVAVLISGTGSNLQALIDSTREPNSSAQIDIVISNKAAVAGLDKAERAGIPTRVINHKLYKNRVEFDSAIDLVLEEFSIDIVCLAGFMRILSGPFVQKWNGKMLNIHPSLLPSFKGSNAHEQALETGVTVTGCTVHFVAEDVDAGQIILQEAVPVKRGDTVATLSERVKLAEHKIFPAALQLVASGTVQLGENGKICWVKEEPLEHHHHHH | soluble |
| LQQQEEETYADACDEFLDPIMSTLMCDPVVLPSSRVTVDRSTIARHLLSDQTDPFNRSPLTMDQIRPNTELKEKIQRWLAERKQQ | soluble |
| MGSSHHHHHHSSGLVPRGSHMASGTSKDASGGSSSGKEVLEFYHGYHHSEDEWPVAKTMRDLYDKFAEEHKDSGVEFKPTPVNGDLKDIMNNKVASGEFPDVIDLAGNAVSLAAIEQKLVLDLKPYIDSNKLEKNVGLNYKQNQKDGKIYTVHEQLFTMGLWYNKDIFAKAGAKTPDQWNTWDDFTQAMASIRKQDGVYAFGAGEPSIRLFNTVLGTTENGRKLLDKPLTKEGIESKEFADALKMVMKEIQANGSKNAGGDANAYSKDFQEGKSAVFFNGVWASGEMSKNPSLAPGIYPAGVAISSSGGGITISSKMSEAKQKLALEFLKYMTSDDVQKVIFEKVGANPSNENVNVKELSEKSSEATTKILGQAITQVKNAKAVVPTVSDVWGGDVHTAIINALTESAAENVDVDQKVKSTQDVLKSLIG | soluble |
| QLNPYLRLKVRRDHIIDDALVRLEMIAMENPADLKKQLYVEFEGEQGVDEGGVSKEFFQLVVEEIFNPDIGMFTYDESTKLFWFNPSSFETEGQFTLIGIVLGLAIYNNCILDVHFPMVVYRKLMGKKGTFRDLGDSHPVLYQSLKDLLEYEGNVEDDMMITFQISQTDLFGNPMMYDLKENGDKIPITNENRKEFVNLYSDYILNKSVEKQFKAFRRGFHMVTNESPLKYLFRPEEIELLICGSRNLDFQALEETTEYDGGYTRDSVLIREFWEIVHSFTDEQKRLFLQFTTGTDRAPVGGLGKLKMIIAKNGPDTERLPTSHTCFNVLLLPEYSSKEKLKERLLKAITYAKGFGML | soluble |
| MKRVALLAVGSFNPPTIAHLRMLEVARSHLETINTQVVEGIMSPVADSYNNKPTLIKSNFRIQMVRAATKSSDWIRADDWECTRTTWTRTIDVLRHHRELVQEKFGSDVGMMLVVGGDVVDSFTRILPDGSNLWNSSDIRTIITEFGLIVLSREGSNPLNTIQSMPAISEFCDRIIQVKDEVCPSGVSSTRLRAAIMNKKSIKYSTPDEVINFIRENNLYQKI | not soluble |
| TSTDWKEAKSFLKGLSDKQREEHYFCKDFVRLKKIPTWKEMAKGVAVKVEEPRYKKDKQLNEKISLLRSDITKLEVDAIVNAANSSLLGGGGVDGCIHRAAGPLLTDECRTLQSCKTGKAKITGGYRLPAKYVIHTVGPIAYGEPSASQAAELRSCYLSSLDLLLEHRLRSVAFPCISTGVFGYPCEAAAEIVLATLREWLEQHKDKVDRLIICVFLEKDEDIYRSRLPHYFPVA | soluble |
| MKQPTLAVIMTCHNRRNTTLACLQALYQQKNHFDVYLTDDGSTDGTAEFIKAEYPDVKIFQGDGNLFWVGGMHLAFGEAIKNQYDYYLWLNDDTFLEADALEKLLQVHENLAVEGYGQSIVVGSTQDPITKQATYGGAVKSKKWYSNKFEFLEPTSDVQKCDAMYGNCVLIPHSVTLKVGNIDTAFIHSLGDLDYALRARNLGLEHHHHHH | not soluble |
| MGSDKIHHHHHHMSKIVEVSKSPYAKLKTIPVGSVRVNGFMGKYFETLVNVTLPTQYDLLENTGRLDNFRIAAGKMEGSYKTLFPFDDTDVYKWAETVSFALANRKLPELEKILDSVIEEVKAAQDEDGYLGTYLSGDRKKERWTNLAWNHELYNAGHLIQAAVAHRRVTGKNTLFEVAKRFADHIYNTFGPEKKEGAPGHPEVEMALVELYRETGDRKYLDLARYFIYARGKGLASVPRNPGPEYFIDHKPFVELEEITGHAVRALYLCSGATDLYLETGDEKIWQALNRLWENFVTKKMYITGGAGSRHDWESFGEEYELPNRRSYAESCASIANFMWNFRMLLATGDGKFADVMEQVLYNGLLSGISLDGKHYFYFNPLEDYGRTRRQKWFDCACCPPNLARFIVSFPGYMYTTSDDGVQVHLYEKSTARLDFKGSVVEIEQETDYPWSGEVAFTIKTDIEEPFSIYLRLPSWADDFVLRVDGKAVIAKPQNGYVKLSQSWKGKHTVELSLPMKAVFIEAHPFVRDDLGKAAVKRGPVVYCIEQADNPDFHVWTLVLNSESLKEEKGKILDREAVFLKGTGRALDISEWEGKLYRKLSEVREKTVEFTLIPYHMWANREPGAMAVWLKR | not soluble |
| INTVNLINQMKTLAAQAEGIKPDSGLNHASFSSVFQQALNQVNELSQTADSLKTRFEIGDPNVSLGEVMIASQKSNLGFEATLRVRNKLVQAYQDIMNMPV | not soluble |
| MGCVSSTSRSTGYYSGYESHEEPRAASRPTNSDDRGYETDSEPSSGNLIPNARSVYSESVLWHGTSMQSKIDLRSKGFDAGRKTGGATAGGNANMFMNLSREAQSETRRHHYLSSSQKEAKDFAMFADTSNPTLVRTIGVRNNLSLITDPRTGGTALMTDQSIPRKFVLGSKSSAPGENAKVFRDEMRAAGHNVSTKQAGELLREVQSDS | not soluble |
| AHHHHHHGSGRDKKNTALLDIARDIGGDEAVEVVKALEKKGEATDEELAELTGVRVNTVRKILYALYDAKLATFRRVRDDETGWYYYYWRIDTKRLPEVIRTRKLQELEKLKQMLQEETSETYYHCGTPGHPKLTFDEAFEYGFQCPICGEILYEYDNSKIIEELKKRIEELEIELGLRSPPKEEKPKKATRRKKSRSGKKKK | not soluble |
| MEEIWLSCHALVFHTTPTQRLCVGWGELAVGRFVKMAAAPAPEMTPRLDVSKNATDPDSLTDHGFQYSRHRPVITDHKRFDRLVGFSIKQSNVELAAEAIKQAATVWCLTEKKSDKRDEDSVKFLATYLYKESLYWGKIDPRRALQRATAESWLGSQSFAPTSARTYKAVLHTAGRVLYPAEFPPANRYSNPRAKPVDPASVELIDELYGVAATLPAVHRLRLQLILDLTTQSGLRSAEVLDLRGSDVTARILDTGERIALVRVHR | not soluble |
| MGSDKIHHHHHHMVEVLTESNQSLDSLEALCSKYRIERGIVATVVDLNERILAELAALPFPLLWLNHETPLPVGNLYETPETLGYDRIAAVVGANEQFPHNDILVIDAGTCITYEFIDSKGQYHGGNISPGMQMRYKALHQFTGRLPLIDSNGRKLPMGRDTETAIRAGVLKGMEYEISGYIEAMKHKYPELLVFLTGGDDFSFDSSVKSAIFADRFLVLKGLNRILNYNNGRI | not soluble |
| MGSDKIHHHHHHMMTQVPDTPQALYRALPSMDSLLADAVLAPLLQRYGKAAVKAALDSQLRTARELIAQERRLPAWCANPSLLNGYLVDQLSKDYSHSLKPVWNLTGTILHTNLGRAQQSEAAIRAVTSVMRYPTPLEFELAAGERGHRDNAISGLIQRLTGAEACCVVNNNAAAVLLMLSAVAAGKEVIVSRGELVEIGGAFRIPDIMRQAGCTLVEVGSTNRTHLKDYEQAITENTAAIMKVHTSNYHISGFTAAVEEARLGQLCRERGILLISDLGSGSLTDLRRFGLKQEPTPQAMLADGVDLVSFSGDKLLGGPQSGLIVGKQALINKLQSHPLKRALRCDKLILAALEATLIHYLNPETLDKELPIMAKFARSQAELRQIGERLQQALAPLFTPSYGLELVECQTQVGSGSQPDTFLPSIGLCFNAQEGGSLTLLEQHFKQAQRPVIGRMTQDQLRLDLRGIDDEAELLAELSTLGVQL | not soluble |
| MGSDKIHHHHHHMSILTVSNLSHGFGDRAIFEDVSFRLLKGEHIGLVGANGEGKSTFMNIITSQLEPDEGKVEWAKHVRVGYLDQHAVLSKGLTIRDALKGAFQYLFDIEQEINDLYTKMGEVEPDELEKMLEEVGVLQDILTNNDFYTIDAKVEEIARGLGLDEIGLDRDVQELSGGQRTKILLAKLLLEKPDILLLDEPTNYLDVQHIEWLKRYLNDYENAFILISHDIPFLNSVINLIYHMENQGLNRYVGDYDNFLTVHEAKKKQHESAFKRQQQEISELKDFVARNKARVSTRNMAMSRQKKLDKMDVIELAQERPKPEFHFQTARTPSKLMFEAKGLVIGYDEPLSRPLDLMIERGQKIALHGANGIGKSTLLKSLLGEIPSVSGTVERGENLHIGYFEQEIKEKNSNTCIEEIWGTFPSLTQQQVRAMLAKCGLMTKHIESKIEVLSGGEKAKVRLCKLMNTESNILVLDEPTNHLDVEAKEELKRALQEYKGTVLLISHEPEFYEAVATDLWNCESWTTKVF | not soluble |
| GSMLHGLKQRLEALHHPGELEGSPQNLHQLLGVSIEQSVPQAQTMLVERHLASLTGDEARLLAALSDGSAFALLTLYSGSRFSRGEVLYRYSNAGRAAGIQCNDFIALYLNHLFAQGLVIASDFTESLRTDYELCEGDSDFRKAQAELQIHLPKLSIRRETLRISPLGRQLWTLMTTPADIEEGH | soluble |
| MLSVIIITKNEEANIRRCLESVHFADEIIVLDSGSTDNTLAIAREYTDKVFSTDWQGYGIQKDRALQKAQGDWVLNLDADESVSSELRQEILQAISSDTADAFRIPIQMIFYNQVLKYSGSPKRHIRLFKRENASYSKDIVHEKVLIPVNARVGKLKKPIWHHSFSDVHHVLYKLNKYSSYSAKIRIESNEKVGLVKTFFSALWMFVRCLFLQKGFLDGRAGFLFAVFGAQGAFYRGVKQIYKDRDINKLPSVNHIKEELEHHHHHH | soluble |
| MGSDKIHHHHHHMTVAVDLPIPAKLVPVFTKENVRYRGAHGGRGSAKTRTFAMMSAVRAYQAAESGTSGVILCAREFMNSLEESSMEEVKQAIRSIPWLDDYFEIGEKYIRTKNRLVNYVFCGLRHNLDSIKSKARILLAWIDEAESVSETAWKKLRPTVRESGSEIWVTWNPEKDGSATDKRLRKKPPKSSIIVEMNYSDNPWFPDVLEEERQEDLESLDHSDYAWIWEGAYLENSEKQVLANKYKIESFPDDLWMQADRLLFGADFGFARDPSTLLRMFILDNCLYIDREAYSVGVELDHMPAFYDQVPESRKWPIKADSARPETISYLKRQGFNISAAKKWQGSVEDGITFLRGFKKIIIHPRCKETAKEARLYSYKVDRITGEVLPIIEDAHNHCWDAARYGLDGYIKGRTTVWDIM | not soluble |
| MTIKWIDWVKQIQSIAQAGLTYSKDVYDIERFQQLRDISISMMSHYTKTDWEVVEKLFASETGYQTPKVDIRAVVFQNEKLLFVKEKSDGKWALPGGWADVGYTPTEVAAKEVFEETGYEVDHFKLLAIFDKEKHQPSPSATHVYKIFIGCEIIGGEKKTSIETEEVEFFGENELPNLSIARNTEDQIKEMFAYMKDPQKEKLID | not soluble |
